Test results published in PMC4718548 (Structure (London, England : 1993), 2015).
Numbering of substitutions follows the chain as printed. Names may count otherwise.

Columns and labels:
[1] = biological target: Mycobacterium tuberculosis ribosome large subunit 50S (Mycobacterium tuberculosis (endogenous in Mtb MC2 7000)) (UniProt A5U0A0); assay: co-sedimentation
[2] = biological target: Mycobacterium tuberculosis ribosome large subunit 50S (Mycobacterium tuberculosis (endogenous in Mtb MC2 7000)) (UniProt A5U0A0)
[3] = biological target: Mycobacterium tuberculosis ribosome large subunit 50S (Mycobacterium tuberculosis (endogenous in Mtb MC2 7000)) (UniProt A5U0A0); assay: cryo-EM structure
[4] = biological target: the molecule itself

Mycobacterium tuberculosis ribosome large subunit 50S (Mycobacterium tuberculosis (endogenous in Mtb MC2 7000)), sequence (A5U0A0 whole entry, looked up): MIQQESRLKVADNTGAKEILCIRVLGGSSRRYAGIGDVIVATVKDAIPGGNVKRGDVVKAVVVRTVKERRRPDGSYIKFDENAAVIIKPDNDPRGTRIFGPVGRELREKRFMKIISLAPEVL

With “Mycobacterium tuberculosis ribosome small subunit 30S (complex)” the percent of 50S in the 70S form, without RsfS [1] was > 70%.

B1: Escherichia coli RsfS, wild type, C-terminal His6 (natural protein)
chain: MQGKALQDFVIDKIDDLKGQDIIALDVQGKSSITDCMIICTGTSSRHVMSIADHVVQESRAAGLLPLGVEGENSADWIVVDLGDVIVHVMQEESRRLYELEKLWS
Molecule B1 has an inhibition in the Mtb ribosome cell-free translation assay [2] of 80%.

B2: Mycobacterium tuberculosis ribosomal silencing factor RsfS, wild type, C-terminal His6 (natural protein)
chain: MTANREAIDMARVAAGAAAAKLADDVVVIDVSGQLVITDCFVIASGSNERQVNAIVDEVEEKMRQAGYRPARREGAREGRWTLLDYRDIVVHIQHQDDRNFYALDRLWGDCPVVPVDLSANSAGAQ
B2 showed a stoichiometry N [3] of 1.

B3: Mycobacterium tuberculosis RsfS E74A, C-terminal His6 (natural protein)
chain: B2 chain with E74A
B3 was tested, and the “stoichiometry N” value [4] was 2.
